Results: patent US20220025037A1 (DRAGONFLY THERAPEUTICS, published 2022)

Experiments:
[1] = target: recombinant human DLL3 (ELISA coat) (human) (UniProt Q9NYJ7); assay: ELISA on coated recombinant human DLL3, anti-mouse IgG-HRP
human DLL3-His [2] = target: T1, human DLL3-His (human, UniProt Q9NYJ7 27-492, limits assumed); assay: SPR (Biacore 8K), 37 C, antibody captured on anti-mouse Fc, human DLL3-His injected, 1:1 fit
T1 construct: also called hDLL3
T1 sequence (looked up): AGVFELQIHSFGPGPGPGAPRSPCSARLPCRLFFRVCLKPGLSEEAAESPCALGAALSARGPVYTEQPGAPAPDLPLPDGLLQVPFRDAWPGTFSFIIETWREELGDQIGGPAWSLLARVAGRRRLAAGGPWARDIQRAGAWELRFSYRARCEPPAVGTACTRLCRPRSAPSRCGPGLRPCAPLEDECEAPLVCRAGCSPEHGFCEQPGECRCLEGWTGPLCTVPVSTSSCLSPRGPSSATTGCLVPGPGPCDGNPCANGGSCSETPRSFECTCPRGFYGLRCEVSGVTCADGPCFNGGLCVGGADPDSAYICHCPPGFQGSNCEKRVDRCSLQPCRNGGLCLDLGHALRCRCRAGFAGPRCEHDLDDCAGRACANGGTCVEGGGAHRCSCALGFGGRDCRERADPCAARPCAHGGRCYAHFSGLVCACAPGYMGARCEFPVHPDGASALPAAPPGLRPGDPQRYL
From the text: (§1) The kinetics of binding of different humanized variants and parental murine 5E7 antibody to human DLL3-His was studied by Surface Plasmon Resonance using a Biacore 8K instrument. Briefly, anti-hFc and anti-mFc IgG proteins were covalently immobilized onto different channels of CM5 chip to allow simultaneous analysis of human and murine antibodies. m5E7 was captured on the anti-mouse Fc channel and humanized variants were captured on the anti-human Fc channel at a desired capture level of ˜56 RU in HBS-EP+ buffer supplemented with 0.1% BSA. Three buffer blanks and human DLL3-His (analyte) at concentrations 0.411-300 nM (in three fold dilutions) were injected over the surface with captured murine or humanized 5E7 for 300 second association time and let dissociate for 600 second at a flow rate of 30 μL/min. The surfaces were subjected to regeneration with three 20-second pulses of 10 mM glycine pH 1.70 at a flow rate of 100 μL/min between every concentration of analyte. The experiment was conducted at 37° C. Data were double referenced and a 1:1 fit model was applied to the sensorgrams in the Biacore Insight Evaluation software.
(§2) The kinetic parameters of human DLL3-His binding to murine and humanized variants of 5E7 antibody variants were calculated and shown in Table 12.

recombinant human DLL4 = target: T2, recombinant human DLL4 (human, UniProt Q9NR61 27-524, limits assumed); assay: ELISA, plate coated with recombinant human DLL4 at 0.5 ug/ml, anti-mouse IgG-HRP/TMB, signal as % of positive control max
T2 construct: Coated on plates at 0.5 µg/ml
T2 sequence (Q9NR61 27-524 limits assumed): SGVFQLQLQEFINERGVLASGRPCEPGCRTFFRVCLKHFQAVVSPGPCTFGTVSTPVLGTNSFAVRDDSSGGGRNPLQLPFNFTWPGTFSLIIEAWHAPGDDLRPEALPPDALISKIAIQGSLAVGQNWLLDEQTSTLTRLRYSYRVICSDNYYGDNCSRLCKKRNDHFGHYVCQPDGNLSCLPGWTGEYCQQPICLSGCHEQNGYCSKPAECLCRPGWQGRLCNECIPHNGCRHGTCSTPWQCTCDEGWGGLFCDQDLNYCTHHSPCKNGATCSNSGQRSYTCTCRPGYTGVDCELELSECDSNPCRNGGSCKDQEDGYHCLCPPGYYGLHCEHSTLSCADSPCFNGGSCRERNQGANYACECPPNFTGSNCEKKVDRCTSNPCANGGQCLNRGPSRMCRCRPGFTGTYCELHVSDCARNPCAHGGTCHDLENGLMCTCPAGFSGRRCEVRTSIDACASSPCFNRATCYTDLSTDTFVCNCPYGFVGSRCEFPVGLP
Description: To investigate the binding of anti-DLL3 antibodies to human DLL3, wells of high binding flat-bottom plates were coated with recombinant human DLL3 diluted to 0.5 μg/ml. To assess cross-reactivity of the antibodies to DLL1/DLL4, which are closely related family members to DLL3, plates were coated with recombinant human DLL1 diluted to 1 μg/ml, or human DLL4 diluted to 0.5 μg/ml. […] Binding was detected using anti-mouse IgG-HRP and 3,3′,5,5′-Tetramethylbenzidine (TMB) substrate. Signals were normalized to the corresponding positive control antibody.

human DLL3-His [3] = target: T1, human DLL3-His; assay: SPR (Biacore 8K), 37 C, antibody captured on anti-human Fc, human DLL3-His injected, 1:1 fit
From the text: as §1, §2

[4] = target: T3, DLL3 on RPMI-8226 cells transduced to express the full-length extracellular portion of DLL3 (UniProt Q9NYJ7 27-492, limits assumed); assay: flow cytometry on RPMI-8226 cells transduced to express DLL3, fluorophore-conjugated anti-human IgG secondary, MFI
T3 construct: extracellular domain; also called DLL3+ RPMI-8226 cells; cell surface DLL3
T3 sequence (looked up): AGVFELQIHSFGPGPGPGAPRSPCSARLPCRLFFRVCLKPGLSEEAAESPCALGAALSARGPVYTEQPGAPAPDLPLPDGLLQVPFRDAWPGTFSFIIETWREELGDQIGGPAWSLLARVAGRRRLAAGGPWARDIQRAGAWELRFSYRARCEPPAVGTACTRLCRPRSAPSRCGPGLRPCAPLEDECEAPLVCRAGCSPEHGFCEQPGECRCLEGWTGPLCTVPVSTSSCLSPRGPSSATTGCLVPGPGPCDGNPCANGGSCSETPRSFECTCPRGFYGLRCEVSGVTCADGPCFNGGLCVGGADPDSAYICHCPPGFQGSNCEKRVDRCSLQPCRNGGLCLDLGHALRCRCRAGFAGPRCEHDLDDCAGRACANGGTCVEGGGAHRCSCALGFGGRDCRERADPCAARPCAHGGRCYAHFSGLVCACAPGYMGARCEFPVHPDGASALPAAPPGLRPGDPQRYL
Description: To assess the binding of the mAbs to DLL3 positive cells, human myeloma cell line RPMI-8226 was transduced to express the full-length extracellular portion of DLL3. Anti-DLL3 mAbs were diluted and incubated with DLL3⁺ RPMI-8226 cells. The cells were analyzed by flow cytometry and binding of a mAb was detected using a fluorophore conjugated anti-human IgG secondary antibody.

Q: Which EC50 [1] does the source give for “positive control antibody for DLL3 (R&D Systems-MAB4315)” here?
A: 0.1 nM

B1: murine anti-DLL3 antibody clone 5E7 (antibody, V domains shown)
VH: EVQLQQSGAELVRPGASVKLSCTASGFNIKDDYIHWVKQWPEQGLEWIGWIDSENGDTEYASKFQGKATMTADTSSNTAYLQLSGLTSEDTAVYYCTTSSYYSYDLFVYWGQGTLVTVSA
VL: DVLMTQTPLTLSVPIGQPASISCKSSQSLLHSNGKTYLNWLLQRPGQSPKLLIYLVSKLESGVPDRFSGSGSGTDFTLKISRVEAEDLGVYYCLQTTHLYTFGGGTKLEIK
notes: Mouse hybridoma antibody, captured by anti-mouse Fc; also called m5E7; murine 5E7
Q: How did the Kd (human DLL3-His [2]) turn out when B1 was run?
A: 1.2 nM

Q: Does B1 bind (recombinant human DLL4)?
A: binds

B2: humanized anti-DLL3 antibody h5E7 (antibody, V domains shown)
VH: QVQLVQSGAEVKKPGASVKVSCKASGFNIKDDYIHWVRQAPGQGLEWMGWIDSENGDTEYASKFQGRVTITADTSANTAYMELSSLRSEDTAVYYCATSSYYSYDLFVYWGQGTLVTVSS
VL: DVQMTQSPSSLSASVGDRVTITCKSSQSLLHSNGKTYLNWLQQKPGQAPKLLLYLVSKLESGVPSRFSGSGSGTDYTLTISSLQPEDFATYYCLQTTHLYTFGQGTKLEIK
notes: also called clone h5E7
Q: For B2, which Kd (human DLL3-His [3]) is on record?
A: 8.7 nM

Q: What about the “EC50 (read off the curve)” value [4] of the same molecule?
A: ~6 nM

B3: humanized anti-DLL3 antibody h5E7-YD-C6 (antibody, V domains shown)
VH: QVQLVQSGAEVKKPGASVKVSCKASGFNIKDDYIHWVRQAPGQGLEWMGWIDSENGDTEYASKFQGRVTITADTSANTAYMELSSLRSEDTAVYYCATSEYYSYDLFVYWGQGTLVTVSS
VL: DVQMTQSPSSLSASVGDRVTITCKSSQSLLHSNGKTYLNWLQQKPGQAPKLLLYLVSKLESGVPSRFSGSGSGTDYTLTISSLQPEDFATYYCLQTTHLYTFGQGTKLEIK
notes: also called C6 variant
Q: How did the Kd (human DLL3-His [3]) turn out when B3 was run?
A: 3.3 nM

B4: humanized anti-DLL3 antibody h5E7-YD-F3 (antibody, V domains shown)
VH: QVQLVQSGAEVKKPGASVKVSCKASGFNIKDDYIHWVRQAPGQGLEWMGWIDSENGDTEYASKFQGRVTITADTSANTAYMELSSLRSEDTAVYYCATSSYWSYDLLVYWGQGTLVTVSS
VL: DVQMTQSPSSLSASVGDRVTITCKSSQSLLHSNGKTYLNWLQQKPGQAPKLLLYLVSKLESGVPSRFSGSGSGTDYTLTISSLQPEDFATYYCLQTTHLYTFGQGTKLEIK
notes: also called F3 variant
Q: With B4 as the molecule, how does the Kd (human DLL3-His [3]) read?
A: 1.2 nM
